Data: doi:10.1101/2025.07.17.665365, “A protein-dependent riboswitch activates ribosomal frameshifting in cardioviruses”

How the values were obtained:
TMEV 2A [1] = biological target: T1, TMEV 2A (Theiler's murine encephalitis virus …, UniProt P08545 923-1055); assay: EMSA; EMSA: 10 mM Tris-HCl pH 7.4, ~140 mM NaCl, 2 mM Mg acetate, 1 mM DTT, 5% glycerol, 50 nM RNA, 37 C; MST: 20 mM Tris-HCl pH 7.4, 400 mM NaCl, 1 mM MgCl2, 1 mM DTT, 0.05% Tween-20, 0.1 mg/ml tRNA, 22 C; smFRET: 10 mM Tris-HCl pH 7.4, 150 mM NaCl, 1 mM MgCl2, 1 mM DTT, 0.1 mg/ml BSA, ambient; details: protein: recombinant, tags: His6-MBP, TEV-cleaved/removed, label: 5' Cy5 or AzDye647
T1 sequence: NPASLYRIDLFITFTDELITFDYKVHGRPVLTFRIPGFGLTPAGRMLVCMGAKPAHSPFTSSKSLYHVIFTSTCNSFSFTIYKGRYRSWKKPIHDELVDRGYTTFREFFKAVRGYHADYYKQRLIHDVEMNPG

TMEV 2A [2] = biological target: T1, TMEV 2A; assay: EMSA; range given jointly for +1 and -1 bp; EMSA: 10 mM Tris-HCl pH 7.4, ~140 mM NaCl, 2 mM Mg acetate, 1 mM DTT, 5% glycerol, 50 nM RNA, 37 C; MST: 20 mM Tris-HCl pH 7.4, 400 mM NaCl, 1 mM MgCl2, 1 mM DTT, 0.05% Tween-20, 0.1 mg/ml tRNA, 22 C; smFRET: 10 mM Tris-HCl pH 7.4, 150 mM NaCl, 1 mM MgCl2, 1 mM DTT, 0.1 mg/ml BSA, ambient; details: protein: recombinant, tags: His6-MBP, TEV-cleaved/removed, label: 5' Cy5 or AzDye647
TMEV 2A [3] = biological target: T1, TMEV 2A; assay: smFRET; 0.5 uM 2A; E 0.85 to 0.63; EMSA: 10 mM Tris-HCl pH 7.4, ~140 mM NaCl, 2 mM Mg acetate, 1 mM DTT, 5% glycerol, 50 nM RNA, 37 C; MST: 20 mM Tris-HCl pH 7.4, 400 mM NaCl, 1 mM MgCl2, 1 mM DTT, 0.05% Tween-20, 0.1 mg/ml tRNA, 22 C; smFRET: 10 mM Tris-HCl pH 7.4, 150 mM NaCl, 1 mM MgCl2, 1 mM DTT, 0.1 mg/ml BSA, ambient; details: protein: recombinant; tags: His6-MBP, TEV-cleaved/removed; label: 5' Cy5; 3' Cy3; stem-loop / pseudoknot
TMEV 2A [4] = biological target: T1, TMEV 2A; assay: X-ray crystallography; 1.9 A; pseudoknot; EMSA: 10 mM Tris-HCl pH 7.4, ~140 mM NaCl, 2 mM Mg acetate, 1 mM DTT, 5% glycerol, 50 nM RNA, 37 C; MST: 20 mM Tris-HCl pH 7.4, 400 mM NaCl, 1 mM MgCl2, 1 mM DTT, 0.05% Tween-20, 0.1 mg/ml tRNA, 22 C; smFRET: 10 mM Tris-HCl pH 7.4, 150 mM NaCl, 1 mM MgCl2, 1 mM DTT, 0.1 mg/ml BSA, ambient; details: protein: recombinant; tags: His6-MBP, TEV-cleaved/removed; stem-loop alone
TMEV 2A [5] = biological target: T1, TMEV 2A; assay: smFRET; 0.5 uM 2A; E 0.58 to 0.83; EMSA: 10 mM Tris-HCl pH 7.4, ~140 mM NaCl, 2 mM Mg acetate, 1 mM DTT, 5% glycerol, 50 nM RNA, 37 C; MST: 20 mM Tris-HCl pH 7.4, 400 mM NaCl, 1 mM MgCl2, 1 mM DTT, 0.05% Tween-20, 0.1 mg/ml tRNA, 22 C; smFRET: 10 mM Tris-HCl pH 7.4, 150 mM NaCl, 1 mM MgCl2, 1 mM DTT, 0.1 mg/ml BSA, ambient; details: protein: recombinant; tags: His6-MBP, TEV-cleaved/removed; label: 5' Cy5; U31 Cy3; stem-loop / pseudoknot
TMEV 2A [6] = biological target: T1, TMEV 2A; assay: SEC-SAXS; SASDWS5; EMSA: 10 mM Tris-HCl pH 7.4, ~140 mM NaCl, 2 mM Mg acetate, 1 mM DTT, 5% glycerol, 50 nM RNA, 37 C; MST: 20 mM Tris-HCl pH 7.4, 400 mM NaCl, 1 mM MgCl2, 1 mM DTT, 0.05% Tween-20, 0.1 mg/ml tRNA, 22 C; smFRET: 10 mM Tris-HCl pH 7.4, 150 mM NaCl, 1 mM MgCl2, 1 mM DTT, 0.1 mg/ml BSA, ambient; details: protein: recombinant; tags: His6-MBP, TEV-cleaved/removed; 7 bp stem-loop with unpaired 5' tail alone; pseudoknot in complex

B1: UA stem 1 (structured_RNA)
RNA: CAAUUUUCGGUGCUAACUAAAUAAAUAGCACCCC
TMEV 2A [1]; stem-loop / pseudoknot
  binding result: no binding

B2: +1 bp stem 2 (structured_RNA)
RNA: CAAGGUGGGGUGCUUACUAAAUCCCAAGCACCCC
TMEV 2A [2]; 8 bp S2
  Kd: ~442 nM

B3: TMEV end reporter RNA (structured_RNA)
RNA: CAAGGUGCGGUGCUAACUAAAUCCCUAGCACCCC
TMEV 2A [3]
  binding result: binds

B4: C37G (structured_RNA)
RNA: CAAGGUGCGGUGCUAACUAAAUCGCUAGCACCCC
TMEV 2A [1]; stem-loop
  binding result: no binding

B5: TMEV minimal stimulatory element (oligo 1) (structured_RNA)
RNA: CAAGGUGCGGUGCUAACUAAAUCCCUAGCACCCC
TMEV 2A [4]
  binding result: binds

B6: C36G (structured_RNA)
RNA: CAAGGUGCGGUGCUAACUAAAUGCCUAGCACCCC
TMEV 2A [1]; stem-loop
  binding result: no binding

B7: TMEV internal reporter RNA (structured_RNA)
RNA: CAAGGUGCGGUGCUAACUAAAUCCCUAGCACCCC
modifications: U31 Cy3 (internal)
TMEV 2A [5]
  binding result: binds

B8: -2 bp stem 2 (structured_RNA)
RNA: CAAGGUGCGGUGCACUAAAUCCCGCACCCC
TMEV 2A [1]; 5 bp S2
  binding result: no binding

B9: -1 bp stem 2 (structured_RNA)
RNA: CAAGGUGCGGUGCUACUAAAUCCCAGCACCCC
TMEV 2A [2]; 6 bp S2
  Kd: ~442 nM

B10: Stem 2 swap (structured_RNA)
RNA: CAAGGUGCCCACGAUACUAAAUCCCAUCGUGGCC
TMEV 2A [1]; stem-loop / pseudoknot
  Kd: ~313 nM

B11: AU stem 1 (structured_RNA)
RNA: CAAAAUACGGUGCUAACUAAAUUUUUAGCACCCC
TMEV 2A [1]; stem-loop / pseudoknot
  binding result: no binding

B12: dU19 stem 1 (structured_RNA)
RNA: CAAGGGCGGUGCUAACUAAAUCCCUAGCACCCC
TMEV 2A [1]; stem-loop / pseudoknot
  binding result: no binding

B13: Stem 1 swap (structured_RNA)
RNA: CAACCUCCGGUGCUAACUAAAUGGGUAGCACCCC
TMEV 2A [1]; stem-loop / pseudoknot
  binding result: no binding

B14: TMEV stimulatory element, SAXS RNA (structured_RNA)
RNA: CCACAAGGUGCGGUGCUAACUAAAUCCCUAGCACCCC
TMEV 2A [6]
  binding result: binds
